Source: paper PMC12412786 (Nucleic Acids Research, 2025)
Where “and” joins values, the source holds several entries; their conditions need not be identical. Equal values may be shown once.

Molecular target: the molecule itself
Assay: mass photometry

B1: murine PARP2 (poly(ADP-ribose) polymerase 2) (enzyme)
chain: MAPRRQRSGSGRRVLNEAKKVDNGNKATEDDSPPGKKMRTCQRKGPMAGGKDADRTKDNRDSVKTLLLKGKAPVDPECAAKLGKAHVYCEGDDVYDVMLNQTNLQFNNNKYYLIQLLEDDAQRNFSVWMRWGRVGKTGQHSLVTCSGDLNKAKEIFQKKFLDKTKNNWEDRENFEKVPGKYDMLQMDYAASTQDESKTKEEETLKPESQLDLRVQELLKLICNVQTMEEMMIEMKYDTKRAPLGKLTVAQIKAGYQSLKKIEDCIRAGQHGRALVEACNEFYTRIPHDFGLSIPPVIRTEKELSDKVKLLEALGDIEIALKLVKSERQGLEHPLDQHYRNLHCALRPLDHESNEFKVISQYLQSTHAPTHKDYTMTLLDVFEVEKEGEKEAFREDLPNRMLLWHGSRLSNWVGILSHGLRVAPPEAPITGYMFGKGIYFADMSSKSANYCFASRLKNTGLLLLSEVALGQCNELLEANPKAQGLLRGKHSTKGMGKMAPSPAHFITLNGSTVPLGPASDTGILNPEGYTLNYNEFIVYSPNQVRMRYLLKIQFNFLQLW
- stoichiometry N: 2 and 3
